# Experimental data taken from IntAct's records for PubMed 24510189.
# B1: mRNA-decapping enzyme 1A (Homo sapiens), Q9NPI6 (parent)
# chain: MEALSRAGQEMSLAALKQHDPYITSIADLTGQVALYTFCPKANQWEKTDIEGTLFVYRRSASPYHGFTIVNRLNMHNLVEPVNKDLEFQLHEPFLLYRNASLSIYSIWFYDKNDCHRIAKLMADVVEEETRRSQQAARDKQSPSQANGCSDHRPIDILEMLSRAKDEYERNQMGDSNISSPGLQPSTQLSNLGSTETLEEMPSGSQDKSAPSGHKHLTVEELFGTSLPKEQPAVVGLDSEEMERLPGDASQKEPNSFLPFPFEQLGGAPQSETLGVPSAAHHSVQPEITTPVLITPASITQSNEKHAPTYTIPLSPVLSPTLPAEAPTAQVPPSLPRNSTMMQAVKTTPRQRSPLLNQPVPELSHASLIANQSPFRAPLNVTNTAGTSLPSVDLLQKLRLTPQHDQIQTQPLGKGAMVASFSPAAGQLATPESFIEPPSKTAAARVAASASLSNMVLAPLQSMQQNQDPEVFVQPKVLSSAIPVAGAPLVTATTTAVSSVLLAPSVFQQTVTRSSDLERKASSPSPLTIGTPESQRKPSIILSKSQLQDTLIHLIKNDSSFLSTLHEVYLQVLTKNKDNHNL
# partner: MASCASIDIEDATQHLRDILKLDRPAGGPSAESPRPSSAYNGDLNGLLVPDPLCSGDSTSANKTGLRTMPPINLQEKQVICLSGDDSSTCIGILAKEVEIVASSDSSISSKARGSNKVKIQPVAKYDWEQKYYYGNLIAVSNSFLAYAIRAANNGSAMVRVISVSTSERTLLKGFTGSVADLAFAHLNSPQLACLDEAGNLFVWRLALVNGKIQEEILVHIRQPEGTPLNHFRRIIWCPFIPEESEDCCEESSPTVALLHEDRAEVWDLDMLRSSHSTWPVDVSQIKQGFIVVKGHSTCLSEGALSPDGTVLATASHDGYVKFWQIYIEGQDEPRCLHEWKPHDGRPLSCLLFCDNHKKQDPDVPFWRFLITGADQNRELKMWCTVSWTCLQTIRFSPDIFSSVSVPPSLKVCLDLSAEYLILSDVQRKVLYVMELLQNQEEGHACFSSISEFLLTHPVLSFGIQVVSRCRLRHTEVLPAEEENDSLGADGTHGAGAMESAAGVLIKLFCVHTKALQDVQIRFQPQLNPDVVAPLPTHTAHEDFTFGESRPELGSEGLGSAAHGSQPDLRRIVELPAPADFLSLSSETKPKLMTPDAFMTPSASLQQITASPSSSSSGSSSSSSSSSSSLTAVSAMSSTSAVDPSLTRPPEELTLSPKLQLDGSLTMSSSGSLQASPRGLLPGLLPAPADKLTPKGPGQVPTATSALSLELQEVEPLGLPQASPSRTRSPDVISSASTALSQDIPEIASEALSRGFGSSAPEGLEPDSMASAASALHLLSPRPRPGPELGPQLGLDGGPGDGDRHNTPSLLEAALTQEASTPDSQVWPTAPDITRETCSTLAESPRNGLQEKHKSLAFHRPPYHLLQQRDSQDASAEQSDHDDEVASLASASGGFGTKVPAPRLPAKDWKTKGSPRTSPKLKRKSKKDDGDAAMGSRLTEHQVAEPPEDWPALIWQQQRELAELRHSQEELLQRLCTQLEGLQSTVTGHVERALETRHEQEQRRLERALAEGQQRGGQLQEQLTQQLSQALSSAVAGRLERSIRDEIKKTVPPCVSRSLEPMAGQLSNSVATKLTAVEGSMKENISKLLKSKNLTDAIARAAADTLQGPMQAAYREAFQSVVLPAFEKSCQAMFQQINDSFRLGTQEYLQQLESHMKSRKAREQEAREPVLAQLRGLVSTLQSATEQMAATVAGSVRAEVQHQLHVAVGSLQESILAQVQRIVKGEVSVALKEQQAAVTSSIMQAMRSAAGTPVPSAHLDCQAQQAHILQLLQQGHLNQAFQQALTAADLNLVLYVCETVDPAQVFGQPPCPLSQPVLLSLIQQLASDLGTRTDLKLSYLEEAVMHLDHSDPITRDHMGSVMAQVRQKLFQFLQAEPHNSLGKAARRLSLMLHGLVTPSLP
# B2: mRNA-decapping enzyme 1A (Homo sapiens), Q9NPI6 (parent)
# chain: B1 chain
# Variants of: B1
# Settings: with edc4_human EDC4, Q6P2E9
row,Variant,effect of a mutation on the interaction
1,MEALSRAGQEMSLAALKQHDPYITSIADLTGQVALYTFCPKANQWEKTDIEGTLFVYRRSASPYHGFTIVNRLGMHNLVEPVNKDLEFQLHEPFLLYRNASLSIYSIWFYDKNDCHRIAKLMADVVEEETRRSQQAARDKQSPSQANGCSDHRPIDILEMLSRAKDEYERNQMGDSNISSPGLQPSTQLSNLGSTETLEEMPSGSQDKSAPSGHKHLTVEELFGTSLPKEQPAVVGLDSEEMERLPGDASQKEPNSFLPFPFEQLGGAPQSETLGVPSAAHHSVQPEITTPVLITPASITQSNEKHAPTYTIPLSPVLSPTLPAEAPTAQVPPSLPRNSTMMQAVKTTPRQRSPLLNQPVPELSHASLIANQSPFRAPLNVTNTAGTSLPSVDLLQKLRLTPQHDQIQTQPLGKGAMVASFSPAAGQLATPESFIEPPSKTAAARVAASASLSNMVLAPLQSMQQNQDPEVFVQPKVLSSAIPVAGAPLVTATTTAVSSVLLAPSVFQQTVTRSSDLERKASSPSPLTIGTPESQRKPSIILSKSQLQDTLIHLIKNDSSFLSTLHEVYLQVLTKNKDNHNL [N74G],with no effect
2,MEALSRAGQEMSLAALKQHDPYITSIADLTGQVALYTFCPKANQWEKTDIEGTLFVYRRSASPYHGFTIVNGSSGHNLVEPVNKDLEFQLHEPFLLYRNASLSIYSIWFYDKNDCHRIAKLMADVVEEETRRSQQAARDKQSPSQANGCSDHRPIDILEMLSRAKDEYERNQMGDSNISSPGLQPSTQLSNLGSTETLEEMPSGSQDKSAPSGHKHLTVEELFGTSLPKEQPAVVGLDSEEMERLPGDASQKEPNSFLPFPFEQLGGAPQSETLGVPSAAHHSVQPEITTPVLITPASITQSNEKHAPTYTIPLSPVLSPTLPAEAPTAQVPPSLPRNSTMMQAVKTTPRQRSPLLNQPVPELSHASLIANQSPFRAPLNVTNTAGTSLPSVDLLQKLRLTPQHDQIQTQPLGKGAMVASFSPAAGQLATPESFIEPPSKTAAARVAASASLSNMVLAPLQSMQQNQDPEVFVQPKVLSSAIPVAGAPLVTATTTAVSSVLLAPSVFQQTVTRSSDLERKASSPSPLTIGTPESQRKPSIILSKSQLQDTLIHLIKNDSSFLSTLHEVYLQVLTKNKDNHNL [R72G;L73S;N74S;M75G],with no effect
3,MEALSRAGQEMSLAALKQHDPYITSIADLTGQVALYTFCPKANQWEKTDIEGTLFVYRRSASPYHGFTIVNRLNMHNLVEPVNKDLEFQLHEPFLLYRNASLSIYSIWFYDKNDCHRIAKLMADVVEEETRRSQQAARDKQSPSQANGCSDHRPIDILEMLSRAKDEYERNQMGDSNISSPGLQPSTQLSNLGSTETLEEMPSGSQDKSAPSGHKHLTVEELFGTSLPKEQPAVVGLDSEEMERLPGDASQKEPNSFLPFPFEQLGGAPQSETLGVPSAAHHSVQPEITTPVLITPASITQSNEKHAPTYTIPLSPVLSPTLPAEAPTAQVPPSLPRNSTMMQAVKTTPRQRSPLLNQPVPELSHASLIANQSPFRAPLNVTNTAGTSLPSVDLLQKLRLTPQHDQIQTQPLGKGAMVASFSPAAGQLATPESFIEPPSKTAAARVAASASLSNMVLAPLQSMQQNQDPEVFVQPKVLSSAIPVAGAPLVTATTTAVSSVLLAPSVFQQTVTRSSDLERKASSPSPLTIGTPESQRKPSIILSKSQLQDTLIHSIKNDSSRLSTSHEVYLQVLTKNKDNHNL [L554S;F561R;L565S],disrupting interaction strength

# Variants of: B2
# Settings: with dcp2_human DCP2, Q8IU60
row,Variant,effect of a mutation on the interaction
1,MEALSRAGQEMSLAALKQHDPYITSIADLTGQVALYTFCPKANQWEKTDIEGTLFVYRRSASPYHGFTIVNGLNMHNLVEPVNKDLEFQLHEPFLLYRNASLSIYSIWFYDKNDCHRIAKLMADVVEEETRRSQQAARDKQSPSQANGCSDHRPIDILEMLSRAKDEYERNQMGDSNISSPGLQPSTQLSNLGSTETLEEMPSGSQDKSAPSGHKHLTVEELFGTSLPKEQPAVVGLDSEEMERLPGDASQKEPNSFLPFPFEQLGGAPQSETLGVPSAAHHSVQPEITTPVLITPASITQSNEKHAPTYTIPLSPVLSPTLPAEAPTAQVPPSLPRNSTMMQAVKTTPRQRSPLLNQPVPELSHASLIANQSPFRAPLNVTNTAGTSLPSVDLLQKLRLTPQHDQIQTQPLGKGAMVASFSPAAGQLATPESFIEPPSKTAAARVAASASLSNMVLAPLQSMQQNQDPEVFVQPKVLSSAIPVAGAPLVTATTTAVSSVLLAPSVFQQTVTRSSDLERKASSPSPLTIGTPESQRKPSIILSKSQLQDTLIHLIKNDSSFLSTLHEVYLQVLTKNKDNHNL [R72G],with no effect
2,MEALSRAGQEMSLAALKQHDPYITSIADLTGQVALYTFCPKANQWEKTDIEGTLFVYRRSASPYHGFTIVNGSSGHNLVEPVNKDLEFQLHEPFLLYRNASLSIYSIWFYDKNDCHRIAKLMADVVEEETRRSQQAARDKQSPSQANGCSDHRPIDILEMLSRAKDEYERNQMGDSNISSPGLQPSTQLSNLGSTETLEEMPSGSQDKSAPSGHKHLTVEELFGTSLPKEQPAVVGLDSEEMERLPGDASQKEPNSFLPFPFEQLGGAPQSETLGVPSAAHHSVQPEITTPVLITPASITQSNEKHAPTYTIPLSPVLSPTLPAEAPTAQVPPSLPRNSTMMQAVKTTPRQRSPLLNQPVPELSHASLIANQSPFRAPLNVTNTAGTSLPSVDLLQKLRLTPQHDQIQTQPLGKGAMVASFSPAAGQLATPESFIEPPSKTAAARVAASASLSNMVLAPLQSMQQNQDPEVFVQPKVLSSAIPVAGAPLVTATTTAVSSVLLAPSVFQQTVTRSSDLERKASSPSPLTIGTPESQRKPSIILSKSQLQDTLIHLIKNDSSFLSTLHEVYLQVLTKNKDNHNL [R72G;L73S;N74S;M75G],with no effect

# Variants of: B2
# Settings: with pnrc2_human PNRC2, Q9NPJ4
# Chain of pnrc2_human PNRC2, Q9NPJ4 (Q9NPJ4 whole entry): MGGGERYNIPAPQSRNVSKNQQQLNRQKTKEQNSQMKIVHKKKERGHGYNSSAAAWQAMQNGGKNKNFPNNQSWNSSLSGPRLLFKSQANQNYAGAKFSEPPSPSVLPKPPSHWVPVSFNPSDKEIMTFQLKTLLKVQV
row,Variant,effect of a mutation on the interaction
1,MEALSRAGQEMSLAALKQHDPYITSIADLTGQVALYTFCPKANQWEKTDIEGTLFVYRRSASPYHGFTIVNGSSGHNLVEPVNKDLEFQLHEPFLLYRNASLSIYSIWFYDKNDCHRIAKLMADVVEEETRRSQQAARDKQSPSQANGCSDHRPIDILEMLSRAKDEYERNQMGDSNISSPGLQPSTQLSNLGSTETLEEMPSGSQDKSAPSGHKHLTVEELFGTSLPKEQPAVVGLDSEEMERLPGDASQKEPNSFLPFPFEQLGGAPQSETLGVPSAAHHSVQPEITTPVLITPASITQSNEKHAPTYTIPLSPVLSPTLPAEAPTAQVPPSLPRNSTMMQAVKTTPRQRSPLLNQPVPELSHASLIANQSPFRAPLNVTNTAGTSLPSVDLLQKLRLTPQHDQIQTQPLGKGAMVASFSPAAGQLATPESFIEPPSKTAAARVAASASLSNMVLAPLQSMQQNQDPEVFVQPKVLSSAIPVAGAPLVTATTTAVSSVLLAPSVFQQTVTRSSDLERKASSPSPLTIGTPESQRKPSIILSKSQLQDTLIHLIKNDSSFLSTLHEVYLQVLTKNKDNHNL [R72G;L73S;N74S;M75G],with no effect
